# From IntAct's records for PubMed 21703451
# B1: Transient receptor potential protein (Drosophila melanogaster (Fruit fly)), P19334 (parent)
# chain: MGSNTESDAEKALGSRLDYDLMMAEEYILSDVEKNFILSCERGDLPGVKKILEEYQGTDKFNINCTDPMNRSALISAIENENFDLMVILLEHNIEVGDALLHAISEEYVEAVEELLQWEETNHKEGQPYSWEAVDRSKSTFTVDITPLILAAHRNNYEILKILLDRGATLPMPHDVKCGCDECVTSQMTDSLRHSQSRINAYRALSASSLIALSSRDPVLTAFQLSWELKRLQAMESEFRAEYTEMRQMVQDFGTSLLDHARTSMELEVMLNFNHEPSHDIWCLGQRQTLERLKLAIRYKQKTFVAHPNVQQLLAAIWYDGLPGFRRKQASQQLMDVVKLGCSFPIYSLKYILAPDSEGAKFMRKPFVKFITHSCSYMFFLMLLGAASLRVVQITFELLAFPWMLTMLEDWRKHERGSLPGPIELAIITYIMALIFEELKSLYSDGLFEYIMDLWNIVDYISNMFYVTWILCRATAWVIVHRDLWFRGIDPYFPREHWHPFDPMLLSEGAFAAGMVFSYLKLVHIFSINPHLGPLQVSLGRMIIDIIKFFFIYTLVLFAFGCGLNQLLWYYAELEKNKCYHLHPDVADFDDQEKACTIWRRFSNLFETSQSLFWASFGLVDLVSFDLAGIKSFTRFWALLMFGSYSVINIIVLLNMLIAMMSNSYQIISERADTEWKFARSQLWMSYFEDGGTIPPPFNLCPNMKMLRKTLGRKRPSRTKSFMRKSMERAQTLHDKVMKLLVRRYITAEQRRRDDYGITEDDIIEVRQDISSLRFELLEIFTNNNWDVPDIEKKSQGVARTTKGKVMERRILKDFQIGFVENLKQEMSESESGRDIFSSLAKVIGRKKTQKGDKDWNAIARKNTFASDPIGSKRSSMQRHSQRSLRRKIIEQANEGLQMNQTQLIEFNPNLGDVTRATRVAYVKFMRKKMAADEVSLADDEGAPNGEGEKKPLDASGSKKSITSGGTGGGASMLAAAALRASVKNVDEKSGADGKPGTMGKPTDDKKAGDDKDKQQPPKDSKPSAGGPKPGDQKPTPGAGAPKPQAAGTISKPGESQKKDAPAPPTKPGDTKPAAPKPGESAKPEAAAKKEESSKTEASKPAATNGAAKSAAPSAPSDAKPDSKLKPGAAGAPEATKATNGASKPDEKKSGPEEPKKAAGDSKPGDDAKDKDKKPGDDKDKKPGDDKDKKPADNNDKKPADDKDKKPGDDKDKKPGDDKDKKPSDDKDKKPADDKDKKPAAAPLKPAIKVGQSSAAAGGERGKSTVTGRMISGWL
# Variants of: B1
# Details: with inad_drome inaD
row,effect of a mutation on the interaction,Variant
1,decreasing interaction,V1266A
2,disrupting interaction,V1266A;W1274A
